Test results taken from publication PMC8184657.

Target: insulin (bovine insulin) (bovine)
Test: ITC

Q: Which results are given for IS1 (tetrapeptide VYYR)?
A: Ka: 0.00346 M⁻¹; dH: -18.7 kcal/mol
